These are literature values, as cited in PMC10823516.

pKd: −log10 of the molar value.

The target of the series is HER2 ECD (Homo sapiens) (UniProt P04626).

In the case of Trastuzumab Fab Fab, the pKd was 8.70.

By pKd is commonly meant −log10 of the Kd, conventionally taken in molar units.
